Test [1] addresses T1, cyCD19 ECD (cynomolgus).
T1 construct: extracellular domain; also called cynomolgus CD19 ectodomain
Briefly: binding to CD19 ECD; method not stated.

Test [2] has as its target T2, monomeric human CD19 Fc (kih) fusion protein (human, UniProt P0DOX5 223-449 = IgG part).
T2 construct: also called monomeric CD19-Fc
Briefly: SPR (ProteOn XPR36), Fab from bacterial supernatant captured by anti-human Fab, monomeric CD19-Fc as analyte.
Protocol: In order to further characterize the ELISA-positive clones, the off-rate was measured by surface plasmon resonance and compared with the parental humanized clone 8B8.
For this experiment, 7000 RU of polyclonal anti-human Fab antibody were immobilized on all 6 channels of a GLM chip by Amine coupling (NaAcetate pH4.5, 25 μl/min, 240 s) (vertical orientation). Each antibody-containing bacterial supernatant was filtered and 2-fold diluted with PBS, and then injected for 360s at 25 μl/minute to achieve immobilization levels of between 100 and 400 response units (RU) in vertical orientation. […] Regeneration was performed by two pulses of 10 mM glycine pH 1.5 and 50 mM NaOH for 30 s at 90 ul/min (horizontal orientation). Dissociation rate constants (koff) were calculated using a simple one-to-one Langmuir binding model in ProteOn Manager v3.1 software by simultaneously fitting the sensorgrams.

The target of test [3] is T3, huCD19 ECD (human, UniProt P15391 20-291).
T3 construct: also called human CD19 ectodomain
T3 sequence: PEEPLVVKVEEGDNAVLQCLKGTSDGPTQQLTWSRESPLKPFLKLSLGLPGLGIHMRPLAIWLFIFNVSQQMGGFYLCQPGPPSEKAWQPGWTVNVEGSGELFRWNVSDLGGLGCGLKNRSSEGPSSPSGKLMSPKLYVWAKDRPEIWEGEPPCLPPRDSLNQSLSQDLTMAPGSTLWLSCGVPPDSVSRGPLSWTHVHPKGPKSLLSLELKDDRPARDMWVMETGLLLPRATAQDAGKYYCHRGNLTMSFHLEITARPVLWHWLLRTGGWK
Briefly: binding to CD19 ECD; method not stated.

In test [4] the target is T4, human fibroblast activation protein (huFAP) on cells (human, UniProt Q12884 1-760).
T4 construct: Transfected in NIH/3T3-huFAP clone 39; also called NIH/3T3-huFAP clone 39; WM266-4
In words: flow cytometry on MV-3 cells; PE anti-human IgG Fc-gamma F(ab')2; MFI. On the technique in general: A flow cytometer gives signals particle by particle.

Test [5] addresses T5, human 4-1BB (CD137) on cells (human, UniProt Q07011 24-255).
T5 construct: whole, on cells; also called 4-1BB+ human T cells
Briefly: flow cytometry on activated human T cells, gate CD4+; PE anti-human IgG Fc-gamma F(ab')2; MFI baseline corrected.

The target in test [6] is T4, human fibroblast activation protein …. Briefly: flow cytometry on WM-266-4 cells; PE anti-human IgG Fc-gamma F(ab')2; MFI.

The results in this text go back to patent US20200270321A1 (Hoffmann-La Roche, published 2020).

Residue numbers refer to the chain shown, from its start. Names and notes keep the numbering of the source.

For orientation: EC50 means the concentration giving half of the maximal effect. By koff is commonly meant the first-order rate constant of dissociation. One may read the EC50 (read off the curve) as the concentration giving half of the maximal effect. A low value points to higher potency in that assay.

T5 sequence (Q07011 24-255): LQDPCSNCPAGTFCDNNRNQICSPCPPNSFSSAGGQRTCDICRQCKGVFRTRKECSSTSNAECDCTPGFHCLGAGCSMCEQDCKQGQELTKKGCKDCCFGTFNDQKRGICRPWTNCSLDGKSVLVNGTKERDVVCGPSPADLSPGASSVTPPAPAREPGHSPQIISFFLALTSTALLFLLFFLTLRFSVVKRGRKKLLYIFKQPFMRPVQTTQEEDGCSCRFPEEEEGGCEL

B1: wild-type humanized anti-human CD19 antibody 8B8 (antibody, V domains shown)
VH: QVQLVQSGAEVKKPGASVKVSCKASGYTFTDYIMHWVRQAPGQGLEWMGYINPYNDGSKYTEKFNGRVTMTSDTSISTAYMELSRLRSDDTAVYYCARGTYYYGSALFDYWGQGTTVTVSS
VL: DIVMTQTPLSLSVTPGQPASISCKSSQSLENSNGNTYLNWYLQKPGQSPQLLIYRVSKRFSGVPDRFSGSGSGTDFTLKISRVEAEDVGVYYCLQLTHVPYTFGQGTKLEIK
notes: also called wt 8B8
Molecule B1 came in with a half-maximal effective concentration (EC50) in test [1] of 0.313 µg/mL.

B2: affinity-matured 8B8-derived clone 2B11, Fab in bacterial supernatant (Fab, V domains shown)
VH: B1 VH with N65Q, S105P, A106Q
VL: B1 VL with N31T, N33T, N35T, T97L, H98E, V99D
notes: tested as a soluble Fab from bacterial supernatant; also called 8B8-2B11; CD19 (8B8-2B11)
In turn, B2 yielded a dissociation rate constant (koff) in test [2] of 4.37e-06 s⁻¹.

B3: humanized anti-human CD19 antibody clone 8B8-018 (antibody, V domains shown)
VH: B1 VH with N65Q
VL: B1 VL with S32P
notes: also called CD19 (8B8-018)
For the molecule B3, the concentration for a half-maximal effect (EC50) in test [1] turned out to be 0.255 µg/mL; in test [3] it was 0.084 µg/mL.

B4: bivalent binding FAP (28H1)-targeted huIgG1 P329G LALA (antibody, V domains shown)
VH: EVQLLESGGGLVQPGGSLRLSCAASGFTFSSHAMSWVRQAPGKGLEWVSAIWASGEQYYADSVKGRFTISRDNSKNTLYLQMNSLRAEDTAVYYCAKGWLGNFDYWGQGTLVTVSS
VL: EIVLTQSPGTLSLSPGERATLSCRASQSVSRSYLAWYQQKPGQAPRLLIIGASTRATGIPDRFSGSGSGTDFTLTISRLEPEDFAVYYCQQGQVIPPTFGQGTKVEIK
notes: the rest is said to be human IgG1 P329G LALA; also called FAP(28H1)-targeted hu IgG1 P329G LALA control molecule
Consider B4, for which the “EC50 (read off the curve)” value in test [4] and in test [6] was ~1 nM in each case. Moreover, the binding result in test [5] is “no binding (tested: about 300 nM)”.
